Source: patent US20250206837A1 (ELIXIRON IMMUNOTHERAPEUTICS HONG KONG, published 2025)
Where a chain is given by its changes, count along the chain named. Numbers in names are those of the source. Where “and” joins values, the source holds several entries; their conditions need not be identical. Identical values can stand only once.

B1: 12P109 (antibody, human IgG1, kappa, N297A, V domains shown)
VH: EVQLVESGGGLVQPGGSLRLSCAASGFTISSFGIHWVRQAPGKGLEWVAWIAPYGGYTYYADSVKGRFTISADTSKNTAYLQMNSLRAEDTAVYYCARSFFGYFDYWGQGTLVTVSS
VL: DIQMTQSPSSLSASVGDRVTITCRASQDVSNWVAWYQQKPGKAPKLLISTSTSLYSGVPSRFSGSGSGTDFTLTISSLQPEDFATYYCQQYYTLPFTFGQGTKVEIKR
notes: Full-length human IgG1-N297A, kappa; also called 12P109 (IgG1)
B2: A8A (antibody, human IgG1, kappa, N297A, V domains shown)
VH: B1 VH
VL: B1 VL with T50Y, S51A, T52N, Y91H, Y92S, T93N, F96L
notes: Full-length human IgG1-N297A, kappa; also called A8A (IgG1)
B3: 117_DA57E (antibody, V domains shown)
VH: B1 VH with S30D, S31A, Y57E
VL: B1 VL with T50Y, S51A, Y91H, Y92S, T93N, L94A, F96L
notes: full-length IgG, human kappa
B4: 117_DA57D (antibody, V domains shown)
VH: B1 VH with S30D, S31A, Y57D
VL: B1 VL with T50Y, S51A, Y91H, Y92S, T93N, L94A, F96L
notes: full-length IgG, human kappa
B5: 117_101K (antibody, V domains shown)
VH: B1 VH with F101K
VL: B1 VL with T50Y, S51A, Y91H, Y92S, T93N, L94A, F96L
notes: full-length IgG, human kappa
B6: 117_30DA (antibody, V domains shown)
VH: B1 VH with S30D, S31A
VL: B1 VL with T50Y, S51A, Y91H, Y92S, T93N, L94A, F96L
notes: full-length IgG, human kappa
B7: 117_101A (antibody, V domains shown)
VH: B1 VH with F101A
VL: B1 VL with T50Y, S51A, Y91H, Y92S, T93N, L94A, F96L
notes: full-length IgG, human kappa
B8: 117_101Y (antibody, V domains shown)
VH: B1 VH with F101Y
VL: B1 VL with T50Y, S51A, Y91H, Y92S, T93N, L94A, F96L
notes: full-length IgG, human kappa
B9: 117_101S (antibody, V domains shown)
VH: B1 VH with F101S
VL: B1 VL with T50Y, S51A, Y91H, Y92S, T93N, L94A, F96L
notes: full-length IgG, human kappa
B10: 117_101H (antibody, V domains shown)
VH: B1 VH with F101H
VL: B1 VL with T50Y, S51A, Y91H, Y92S, T93N, L94A, F96L
notes: full-length IgG, human kappa
B11: 117_57D (antibody, V domains shown)
VH: B1 VH with Y57D
VL: B1 VL with T50Y, S51A, Y91H, Y92S, T93N, L94A, F96L
notes: full-length IgG, human kappa
B12: 117_57E (antibody, V domains shown)
VH: B1 VH with Y57E
VL: B1 VL with T50Y, S51A, Y91H, Y92S, T93N, L94A, F96L
notes: full-length IgG, human kappa
B13: 117_30FA (antibody, V domains shown)
VH: B1 VH with S30F, S31A
VL: B1 VL with T50Y, S51A, Y91H, Y92S, T93N, L94A, F96L
notes: full-length IgG, human kappa
B14: 117_30FT (antibody, V domains shown)
VH: B1 VH with S30F, S31T
VL: B1 VL with T50Y, S51A, Y91H, Y92S, T93N, L94A, F96L
notes: full-length IgG, human kappa
B15: 117_30AT (antibody, V domains shown)
VH: B1 VH with S30A, S31T
VL: B1 VL with T50Y, S51A, Y91H, Y92S, T93N, L94A, F96L
notes: full-length IgG, human kappa
B16: 117_30AA (antibody, V domains shown)
VH: B1 VH with S30A, S31A
VL: B1 VL with T50Y, S51A, Y91H, Y92S, T93N, L94A, F96L
notes: full-length IgG, human kappa
B17: 117_30DT (antibody, V domains shown)
VH: B1 VH with S30D, S31T
VL: B1 VL with T50Y, S51A, Y91H, Y92S, T93N, L94A, F96L
notes: full-length IgG, human kappa
B18: 57T (antibody, V domains shown)
VH: B1 VH with Y57T
VL: B1 VL with T50Y, S51A, Y91H, Y92S, T93N, L94A, F96L
notes: the sheet prints only 57T
B19: 117_58E (antibody, V domains shown)
VH: B1 VH with T58E
VL: B1 VL with T50Y, S51A, Y91H, Y92S, T93N, L94A, F96L
notes: full-length IgG, human kappa
B20: 117_57A (antibody, V domains shown)
VH: B1 VH with Y57A
VL: B1 VL with T50Y, S51A, Y91H, Y92S, T93N, L94A, F96L
notes: full-length IgG, human kappa
B21: 117_57R (antibody, V domains shown)
VH: B1 VH with Y57R
VL: B1 VL with T50Y, S51A, Y91H, Y92S, T93N, L94A, F96L
notes: full-length IgG, human kappa
B22: 117_AA57D (antibody, V domains shown)
VH: B1 VH with S30A, S31A, Y57D
VL: B1 VL with T50Y, S51A, Y91H, Y92S, T93N, L94A, F96L
notes: full-length IgG, human kappa
B23: 117_AA57E (antibody, V domains shown)
VH: B1 VH with S30A, S31A, Y57E
VL: B1 VL with T50Y, S51A, Y91H, Y92S, T93N, L94A, F96L
notes: full-length IgG, human kappa

molecular target: T1, Recombinant His-tagged human CD36.ECD protein (Sino Biological) (human, UniProt P16671 30-439); assay: BLI (Octet), antibody on AHC sensor, His-tagged hCD36.ECD in solution, 1:1 fit
T1 construct: Bought protein; also called hCD36.ECD; hCD36; not shown: His tag
T1 sequence (P16671 30-439 limits assumed): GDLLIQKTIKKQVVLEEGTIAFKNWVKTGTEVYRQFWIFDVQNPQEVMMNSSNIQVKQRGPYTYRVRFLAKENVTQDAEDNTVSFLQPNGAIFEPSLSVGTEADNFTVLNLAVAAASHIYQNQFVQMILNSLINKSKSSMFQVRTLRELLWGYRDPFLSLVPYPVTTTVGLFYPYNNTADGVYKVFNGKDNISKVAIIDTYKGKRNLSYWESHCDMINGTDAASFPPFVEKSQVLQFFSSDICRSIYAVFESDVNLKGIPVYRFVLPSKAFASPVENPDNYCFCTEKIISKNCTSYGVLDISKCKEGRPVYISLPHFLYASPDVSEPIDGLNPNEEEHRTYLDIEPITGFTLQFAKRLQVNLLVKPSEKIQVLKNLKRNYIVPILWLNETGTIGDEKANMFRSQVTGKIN
Protocol: BLI assay materials and method: Kinetic rate constants, ka and kd, for binding of the anti-CD36 antibodies to human CD36 were measured by Bio-Layer Interferometry (BLI) (ForteBio Octet RED96). […] Rate constants were calculated by curve fitting analyses (1:1 Langmuir model) of binding response with a 2.5-minute association and 5-minute dissociation interaction time.

Kd	koff	kon	Binder
18500 pM	0.00963 s⁻¹	522000 M⁻¹ s⁻¹	B1
3420 pM	0.00462 s⁻¹	1.35e+06 M⁻¹ s⁻¹	B2

molecular target: T1, Recombinant His-tagged human CD36.ECD …; assay: ELISA, coated human CD36.ECD (FIG. 2D)
Protocol: (§1) ELISA materials and methods: Recombinant His-tagged human CD36.ECD protein or His-tagged mouse CD36.ECD protein (both from Sino Biological) was immobilized on 96 well microtiter plate at a concentration of 1 μg/mL in Coating Solution (SeraCare) overnight at 4° C. The wells were washed with wash solution (0.05% Tween20 in PBS) and blocked with 1% BSA in PBS. Serial dilutions of anti-CD36 antibodies were added to wells. After incubation at 37° C. for 1 h, the wells were washed with wash solution. Peroxidase-conjugated Goat anti-human kappa Light chain antibody (Sigma) was applied to each well at 37° C. for 1 h incubation. After washing, the wells were developed with TMB substrate for 5-10 min at room temperature and then stopped with 1 N HCl. Thereafter absorbance was measured at 450 nm and 650 nm. EC50 values were calculated through GraphPad Prism7.
(§2) The competitor anti-CD36 antibody ONA, which is derived from clone “ONA-0-v1” as disclosed in WO2021176424A1 in hIgG4-S228P-FALA format.

EC50	Binder
53.9 pM	B3
49 pM	B4
1460 pM	B5
80.3 pM	B6
75.1 pM	B7

molecular target: T1, Recombinant His-tagged human CD36.ECD …; assay: ELISA, coated human CD36.ECD (FIG. 2E)
Protocol: as §1, §2

EC50	Binder
355 pM	B8
929 pM	B9
1600 pM	B10

molecular target: T2, mouse CD36-His overexpressed on stable F293 cells (mouse, UniProt Q08857 1-472); assay: flow cytometry, F293 cells overexpressing mouse CD36
T2 construct: Gene segment from Sino Biological; also called F293/mCD36; mCD36; not shown: His tag
T2 sequence (Q08857 whole entry): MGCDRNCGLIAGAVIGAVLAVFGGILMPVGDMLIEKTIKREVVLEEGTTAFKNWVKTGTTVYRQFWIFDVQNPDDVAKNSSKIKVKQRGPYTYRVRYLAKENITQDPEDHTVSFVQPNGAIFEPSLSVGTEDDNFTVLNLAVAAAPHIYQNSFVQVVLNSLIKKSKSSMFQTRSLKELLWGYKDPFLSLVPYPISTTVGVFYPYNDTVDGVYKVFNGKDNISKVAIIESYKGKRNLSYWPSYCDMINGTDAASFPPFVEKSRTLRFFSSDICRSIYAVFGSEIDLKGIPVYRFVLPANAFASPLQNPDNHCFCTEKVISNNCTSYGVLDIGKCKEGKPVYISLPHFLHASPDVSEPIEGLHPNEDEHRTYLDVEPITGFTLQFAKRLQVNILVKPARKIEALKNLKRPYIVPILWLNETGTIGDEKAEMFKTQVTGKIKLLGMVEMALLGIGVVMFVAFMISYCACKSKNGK
Description: (§3) After washing with FACS buffer (2% FBS in PBS), the cells were stained with anti-human IgG-Alexa Fluor 647 and analyzed by Attune NxT Flow Cytometer (Thermo Scientific).

EC50	Binder
0.425 µg/mL and 0.375 µg/mL	B3
0.271 µg/mL	B4
0.309 µg/mL	B11
0.331 µg/mL and 0.279 µg/mL	B12
0.488 µg/mL	B6

molecular target: T1, Recombinant His-tagged human CD36.ECD …; assay: ELISA, coated human CD36.ECD (FIG. 2C)
Protocol: as §1, §2

EC50	Binder
202 pM	B13
254 pM	B14
247 pM	B15
145 pM	B16
103 pM	B17
137 pM	B6

molecular target: T3, Recombinant His-tagged mouse CD36.ECD protein (Sino Biological) (mouse, UniProt Q08857 30-439); assay: ELISA, coated mouse CD36.ECD (FIG. 1D)
T3 construct: Bought protein; also called mCD36.ECD; mCD36; not shown: His tag
T3 sequence (Q08857 30-439 limits assumed): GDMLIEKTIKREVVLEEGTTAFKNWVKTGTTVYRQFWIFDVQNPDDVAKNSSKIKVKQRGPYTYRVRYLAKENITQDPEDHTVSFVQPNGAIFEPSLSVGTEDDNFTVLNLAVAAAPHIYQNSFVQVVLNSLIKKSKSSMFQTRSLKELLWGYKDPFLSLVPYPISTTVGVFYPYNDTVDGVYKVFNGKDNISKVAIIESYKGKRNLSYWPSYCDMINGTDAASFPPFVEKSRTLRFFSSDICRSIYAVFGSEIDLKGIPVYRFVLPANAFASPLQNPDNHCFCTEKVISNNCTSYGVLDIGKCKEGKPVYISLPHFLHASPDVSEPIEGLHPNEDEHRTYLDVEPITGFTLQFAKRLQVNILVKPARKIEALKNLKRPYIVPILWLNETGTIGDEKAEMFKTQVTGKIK
Protocol: as §1
(§4) ELISA data plots showing binding of anti-CD36 antibodies to recombinant human CD36.ECD or mouse CD36.ECD coated on ELISA plates are depicted in FIG. 1C and 1D, respectively.

EC50	Binder
9450 pM	B1
940 pM	B2

molecular target: T1, Recombinant His-tagged human CD36.ECD …; assay: hCD36 ELISA, plate coated with human CD36.ECD, antibody titrated, OD (450-650) nm
Protocol: as §1, §2

binding result	Binder
no binding (tested: about 20 nM)	B18

molecular target: T1, Recombinant His-tagged human CD36.ECD …; assay: ELISA, coated His-tagged human CD36.ECD
Protocol: as §1
(§5) Results: ELISA data plots showing binding to either human CD36.ECD or mouse CD36.ECD are depicted in FIG. 1A and FIG. 1B, respectively, for the full-length IgG anti-CD36 antibody 12P109, and additional positive clones, 12P102, 12P103, 12P104, 12P105, 12P106, 12P107, 12P110 and 12P212.

EC50	Binder
213 pM	B1

molecular target: T4, full-length human CD36-Flag overexpressed on stable F293 cells (human, UniProt P16671 2-472); assay: flow cytometry, F293 cells overexpressing human CD36
T4 construct: Gene segment from Sino Biological; also called F293/hCD36; hCD36; not shown: Flag tag
T4 sequence (P16671 2-472): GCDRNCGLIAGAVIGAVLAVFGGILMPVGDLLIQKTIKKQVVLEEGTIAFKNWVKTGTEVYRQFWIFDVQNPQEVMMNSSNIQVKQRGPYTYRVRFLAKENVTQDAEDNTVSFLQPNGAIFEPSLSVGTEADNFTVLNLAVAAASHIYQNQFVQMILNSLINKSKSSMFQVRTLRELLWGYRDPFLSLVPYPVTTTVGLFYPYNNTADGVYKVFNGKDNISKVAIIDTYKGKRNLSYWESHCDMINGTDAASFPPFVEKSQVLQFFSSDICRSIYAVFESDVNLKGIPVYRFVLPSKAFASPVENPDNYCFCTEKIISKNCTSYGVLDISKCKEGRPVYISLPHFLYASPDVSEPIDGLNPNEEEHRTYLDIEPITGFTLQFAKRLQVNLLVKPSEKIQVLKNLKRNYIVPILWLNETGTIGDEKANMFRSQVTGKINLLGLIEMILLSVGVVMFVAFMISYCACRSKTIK
Description: as §3

EC50	Binder
0.109 µg/mL and 0.0968 µg/mL	B3
0.089 µg/mL	B4
0.111 µg/mL	B11
0.11 µg/mL and 0.091 µg/mL	B12
0.157 µg/mL	B6

molecular target: T2, mouse CD36-His overexpressed on stable …; assay: cell-based or functional assay

oxLDL uptake IC50 (nM), F293/mCD36	Binder
0.86 nM	B1
0.783 nM	B11
0.796 nM	B12
1.07 nM	B6

molecular target: T4, full-length human CD36-Flag …; assay: cell-based or functional assay

oxLDL uptake IC50 (nM), F293/hCD36	Binder
0.401 nM	B1
0.306 nM	B3
0.332 nM	B4
0.349 nM	B11
0.419 nM	B12
0.691 nM	B6

molecular target: T1, Recombinant His-tagged human CD36.ECD …; assay: ELISA, coated human CD36.ECD (FIG. 1C)
Protocol: as §1, §4

EC50	Binder
43200 pM	B1
5170 pM	B2

molecular target: T1, Recombinant His-tagged human CD36.ECD …; assay: ELISA, coated human CD36.ECD (FIG. 2A)
Protocol: as §1, §2

EC50	Binder
1530 pM	B1
422 pM	B19
52.9 pM	B11
49.2 pM	B12
1520 pM	B20
69.5 pM	B21

molecular target: T1, Recombinant His-tagged human CD36.ECD …; assay: ELISA, coated human CD36.ECD (FIG. 2F)
Protocol: as §1, §2

EC50	Binder
190 pM	B3
192 pM	B22
206 pM	B12
251 pM	B23

molecular target: T5, rhesus CD36-His overexpressed on stable F293 cells (rhesus, UniProt P16671 2-472 (human entry)); assay: flow cytometry, F293 cells overexpressing rhesus CD36
T5 construct: Gene segment from Sino Biological; also called F293/rhesusCD36; not shown: His tag
T5 sequence (P16671 other isoform, or with tags, fused parts or gaps): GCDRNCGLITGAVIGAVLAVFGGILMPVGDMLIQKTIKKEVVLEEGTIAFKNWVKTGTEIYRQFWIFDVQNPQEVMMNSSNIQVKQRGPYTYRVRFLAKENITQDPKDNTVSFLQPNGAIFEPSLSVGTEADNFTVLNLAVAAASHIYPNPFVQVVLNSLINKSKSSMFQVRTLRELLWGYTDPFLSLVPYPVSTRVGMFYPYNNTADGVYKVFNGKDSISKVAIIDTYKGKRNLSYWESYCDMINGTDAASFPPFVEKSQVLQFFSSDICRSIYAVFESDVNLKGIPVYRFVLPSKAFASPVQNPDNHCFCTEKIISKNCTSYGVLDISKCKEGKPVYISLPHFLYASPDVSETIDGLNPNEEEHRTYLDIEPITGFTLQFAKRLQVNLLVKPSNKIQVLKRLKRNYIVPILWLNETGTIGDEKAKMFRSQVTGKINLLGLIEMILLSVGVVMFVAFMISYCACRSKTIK
Description: as §3

EC50	Binder
0.563 µg/mL and 0.671 µg/mL	B3
0.416 µg/mL	B4
0.397 µg/mL	B11
0.419 µg/mL and 0.362 µg/mL	B12
1.04 µg/mL	B6

molecular target: T3, Recombinant His-tagged mouse CD36.ECD …; assay: ELISA, coated His-tagged mouse CD36.ECD
Protocol: as §1, §5

EC50	Binder
137 pM	B1
